Data taken from patent US20260139049A1.
Where two headings read alike, the source gives them in different places.

Columns and labels:
human CLDN6 (human) [1] = biological target: human CLDN6 (human) (UniProt P56747); assay: FACS on HEK293T-CLDN6 cells
[2] = biological target: monkey CLDN6 (Cyno CLDN6) (monkey (Cyno)); assay: FACS on CHO-K1-Cyno CLDN6 cells
mouse CLDN6 (mouse) [3] = biological target: mouse CLDN6 (mouse) (UniProt Q9Z262); assay: FACS on CHO-K1-Mouse CLDN6 cells
human CLDN3 (human) = human CLDN3 (human) (UniProt O15551); assay: FACS on 293T-CLDN3 cells, 10 µg/mL
human CLDN4 (human) = human CLDN4 (human) (UniProt O14493); assay: FACS on 293T-CLDN4 cells, 10 µg/mL
human CLDN6 (human) [4] = biological target: human CLDN6 (human) (UniProt P56747); assay: FACS on 293T-CLDN6 cells, 10 µg/mL
human CLDN9 (human) [5] = biological target: human CLDN9 (human) (UniProt O95484); assay: FACS on 293T-CLDN9 cells, 10 µg/mL
human CLDN6 (human) [6] = biological target: human CLDN6 (human) (UniProt P56747); assay: FACS on 293T-CLDN6 cells, 10 µg/mL; remark: listed apart in the source
human CLDN9 (human) [7] = biological target: human CLDN9 (human) (UniProt O95484); assay: FACS on 293T-CLDN9 cells, 10 µg/mL; remark: listed apart in the source
human CLDN6 (human) [8] = biological target: human CLDN6 (human) (UniProt P56747); assay: FACS on 293T-CLDN6 cells, 10 µg/mL; remark: listed apart in the source
human CLDN9 (human) [9] = biological target: human CLDN9 (human) (UniProt O95484); assay: FACS on 293T-CLDN9 cells, 10 µg/mL; remark: listed apart in the source
human CLDN6 (human) [10] = biological target: human CLDN6 (human) (UniProt P56747); assay: FACS on PA-1 tumour cells; target on the cells taken as CLDN6
human CLDN6 (human) [11] = biological target: human CLDN6 (human) (UniProt P56747); assay: as above; remark: listed apart in the source
human CLDN6 (human) [12] = biological target: human CLDN6 (human) (UniProt P56747); assay: FACS on HepG2 tumour cells; target on the cells taken as CLDN6
human CLDN6 (human) [13] = biological target: human CLDN6 (human) (UniProt P56747); assay: as above; remark: listed apart in the source
human CLDN6 (human) [14] = biological target: human CLDN6 (human) (UniProt P56747); assay: ratio of FACS Geom.Mean on 293T-CLDN6 over 293T-CLDN9, 10 µg/mL
human CLDN6 (human) [15] = biological target: human CLDN6 (human) (UniProt P56747); assay: FACS on HepG2 tumour cells, 5 µg/mL; target on the cells taken as CLDN6
mouse CLDN6 (mouse) [16] = biological target: mouse CLDN6 (mouse) (UniProt Q9Z262); assay: FACS
mouse CLDN6 (mouse) [17] = biological target: mouse CLDN6 (mouse) (UniProt Q9Z262); assay: FACS; FIG. 20

Sequence of human CLDN6 (human) (P56747 whole entry): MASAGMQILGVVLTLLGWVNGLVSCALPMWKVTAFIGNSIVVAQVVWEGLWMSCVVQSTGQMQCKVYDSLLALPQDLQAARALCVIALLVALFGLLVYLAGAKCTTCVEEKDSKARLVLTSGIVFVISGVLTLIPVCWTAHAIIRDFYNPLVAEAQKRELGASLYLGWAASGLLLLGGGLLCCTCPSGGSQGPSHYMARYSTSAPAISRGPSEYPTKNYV
Sequence of mouse CLDN6 (mouse) (Q9Z262 whole entry): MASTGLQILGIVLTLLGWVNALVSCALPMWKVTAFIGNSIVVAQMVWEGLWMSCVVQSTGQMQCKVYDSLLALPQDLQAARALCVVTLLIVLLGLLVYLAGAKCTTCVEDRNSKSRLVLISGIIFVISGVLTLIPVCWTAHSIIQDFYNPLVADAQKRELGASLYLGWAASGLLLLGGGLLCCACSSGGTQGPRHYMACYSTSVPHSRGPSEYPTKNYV
Sequence of human CLDN9 (human) (O95484 whole entry): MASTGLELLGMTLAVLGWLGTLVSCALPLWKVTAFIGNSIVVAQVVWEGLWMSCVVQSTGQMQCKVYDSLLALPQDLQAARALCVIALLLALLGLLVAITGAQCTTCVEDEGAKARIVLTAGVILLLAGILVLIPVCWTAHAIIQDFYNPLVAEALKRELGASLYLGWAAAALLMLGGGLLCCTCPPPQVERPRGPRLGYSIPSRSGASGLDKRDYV
Sequence of human CLDN4 (human) (O14493 whole entry): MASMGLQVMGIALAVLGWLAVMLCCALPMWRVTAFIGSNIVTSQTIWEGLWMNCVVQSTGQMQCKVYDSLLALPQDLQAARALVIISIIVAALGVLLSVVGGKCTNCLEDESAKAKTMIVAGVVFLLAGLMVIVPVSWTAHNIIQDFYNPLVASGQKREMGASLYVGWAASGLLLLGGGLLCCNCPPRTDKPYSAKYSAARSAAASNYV
Sequence of human CLDN3 (human) (O15551 whole entry): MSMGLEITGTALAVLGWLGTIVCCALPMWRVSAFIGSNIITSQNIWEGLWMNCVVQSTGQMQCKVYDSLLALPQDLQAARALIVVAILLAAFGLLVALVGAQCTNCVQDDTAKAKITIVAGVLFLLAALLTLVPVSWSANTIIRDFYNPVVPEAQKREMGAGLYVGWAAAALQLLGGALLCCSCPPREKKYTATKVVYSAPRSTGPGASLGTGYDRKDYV

Human IgG (antibody)
EC50 (human CLDN6 (human) [1]): 323 µg/mL
FACS signal (human CLDN6 (human) [1]): 136
EC50 [2]: 132 µg/mL
EC50 (mouse CLDN6 (mouse) [3]): 78.8 µg/mL
Geom.Mean (human CLDN3 (human)): 168
Geom.Mean (human CLDN4 (human)): 158
Geom.Mean (human CLDN6 (human) [4]): 196
Geom.Mean (human CLDN9 (human) [5]): 119
Geom.Mean (human CLDN6 (human) [6]): 163
Geom.Mean (human CLDN9 (human) [7]): 79.4
Geom.Mean (human CLDN6 (human) [8]): 222
Geom.Mean (human CLDN9 (human) [9]): 295
EC50 (human CLDN6 (human) [10]): 138000 µg/mL
EC50 (human CLDN6 (human) [11]): 194 µg/mL
EC50 (human CLDN6 (human) [12]): 63700 µg/mL
EC50 (human CLDN6 (human) [13]): 77.5 µg/mL
CLDN6/CLDN9 ratio (human CLDN6 (human) [14]): 1.6
Geom.Mean (human CLDN6 (human) [15]): 57.6

IMAB027
EC50 (mouse CLDN6 (mouse) [16]): 0.332 µg/mL
EC50 (mouse CLDN6 (mouse) [17]): 0.332 µg/mL
